Measurements taken from patent publication US12344663 (CDR LIFE, dated 2025).

Tests used:
human complement C3 [1] = target: T1, human complement C3 (human, UniProt P01024 23-1663); assay: SPR (Biacore T100), target immobilized, single cycle kinetics, 1:1 Langmuir fit
T1 construct: also called human C3; native human C3
Method: (§1) The kinetic parameters of the candidates are determined using a surface plasmon resonance (SPR) and Biacore T100 device. C3 and different variants thereof (Table 19) are immobilized as a ligand on a HC30M SPR sensor chip (XanTec bionanalytics, Germany) using EDC/[…] linking chemistry. Five increasing concentrations of each molecule (analyte) are consecutively injected using the single cycle kinetics (SCK) mode to determine the kinetic parameters. Regeneration between the candidates is done with 10 mM glycine*HCl, 2 M NaCl, pH 3.5. The data is fitted to a 1:1 Langmuir binding model and the kinetic parameters of on-rate (ka), off-rate (kd), and affinity […] were determined.

human C3b [2] = target: T2, human C3b (human, UniProt P01024 23-667; P01024 749-1663, limits assumed); assay: SPR; reference: the same molecule on intact human C3
T2 construct: domain: C3b; also called C3 cleavage fragments C3b
Method: as §1

human C3b [3] = target: T2, human C3b; assay: method not given
human complement C3 [4] = target: T1, human complement C3; assay: method not given
human C3b [5] = target: T2, human C3b; assay: SPR (Biacore T100), target immobilized, single cycle kinetics, 1:1 Langmuir fit
Method: as §1

cynomolgus C3 = target: T3, cynomolgus C3 (cynomolgus (Macaca fascicularis)); assay: as above
T3 construct: also called cyno C3
Method: as §1

[6] = target: T4, recombinant wild-type human C3 (human, UniProt P01024 23-1663, limits assumed); assay: as above
T4 construct: Expressed in CHO cells with an N-terminal 6×His tag; also called recombinant C3; wildtype C3
Method: as §1

human C3b [7] = target: T2, human C3b; assay: as above; remark: listed apart in the source
Method: as §1

human C3 R102G = target: T5, human C3 R102G (human, UniProt P01024 23-1663, limits assumed); assay: as above
T5 construct: Expressed in CHO cells with an N-terminal 6×His tag; also called C3 SNP2 R102G; C3 SNP R102G
Method: as §1

human complement C3 [8] = target: T1, human complement C3; assay: as above; remark: listed apart in the source
Method: as §1

human C3 P314L = target: T6, human C3 P314L (human, UniProt P01024 23-1663, limits assumed); assay: as above
T6 construct: Expressed in CHO cells with an N-terminal 6×His tag; also called C3 SNP1 P314L; C3 SNP P314L
Method: as §1

human complement C3 [9] = target: T1, human complement C3; assay: cell-based or functional assay

T5 sequence (P01024 other isoform, or with tags, fused parts or gaps R102G R102G limits assumed): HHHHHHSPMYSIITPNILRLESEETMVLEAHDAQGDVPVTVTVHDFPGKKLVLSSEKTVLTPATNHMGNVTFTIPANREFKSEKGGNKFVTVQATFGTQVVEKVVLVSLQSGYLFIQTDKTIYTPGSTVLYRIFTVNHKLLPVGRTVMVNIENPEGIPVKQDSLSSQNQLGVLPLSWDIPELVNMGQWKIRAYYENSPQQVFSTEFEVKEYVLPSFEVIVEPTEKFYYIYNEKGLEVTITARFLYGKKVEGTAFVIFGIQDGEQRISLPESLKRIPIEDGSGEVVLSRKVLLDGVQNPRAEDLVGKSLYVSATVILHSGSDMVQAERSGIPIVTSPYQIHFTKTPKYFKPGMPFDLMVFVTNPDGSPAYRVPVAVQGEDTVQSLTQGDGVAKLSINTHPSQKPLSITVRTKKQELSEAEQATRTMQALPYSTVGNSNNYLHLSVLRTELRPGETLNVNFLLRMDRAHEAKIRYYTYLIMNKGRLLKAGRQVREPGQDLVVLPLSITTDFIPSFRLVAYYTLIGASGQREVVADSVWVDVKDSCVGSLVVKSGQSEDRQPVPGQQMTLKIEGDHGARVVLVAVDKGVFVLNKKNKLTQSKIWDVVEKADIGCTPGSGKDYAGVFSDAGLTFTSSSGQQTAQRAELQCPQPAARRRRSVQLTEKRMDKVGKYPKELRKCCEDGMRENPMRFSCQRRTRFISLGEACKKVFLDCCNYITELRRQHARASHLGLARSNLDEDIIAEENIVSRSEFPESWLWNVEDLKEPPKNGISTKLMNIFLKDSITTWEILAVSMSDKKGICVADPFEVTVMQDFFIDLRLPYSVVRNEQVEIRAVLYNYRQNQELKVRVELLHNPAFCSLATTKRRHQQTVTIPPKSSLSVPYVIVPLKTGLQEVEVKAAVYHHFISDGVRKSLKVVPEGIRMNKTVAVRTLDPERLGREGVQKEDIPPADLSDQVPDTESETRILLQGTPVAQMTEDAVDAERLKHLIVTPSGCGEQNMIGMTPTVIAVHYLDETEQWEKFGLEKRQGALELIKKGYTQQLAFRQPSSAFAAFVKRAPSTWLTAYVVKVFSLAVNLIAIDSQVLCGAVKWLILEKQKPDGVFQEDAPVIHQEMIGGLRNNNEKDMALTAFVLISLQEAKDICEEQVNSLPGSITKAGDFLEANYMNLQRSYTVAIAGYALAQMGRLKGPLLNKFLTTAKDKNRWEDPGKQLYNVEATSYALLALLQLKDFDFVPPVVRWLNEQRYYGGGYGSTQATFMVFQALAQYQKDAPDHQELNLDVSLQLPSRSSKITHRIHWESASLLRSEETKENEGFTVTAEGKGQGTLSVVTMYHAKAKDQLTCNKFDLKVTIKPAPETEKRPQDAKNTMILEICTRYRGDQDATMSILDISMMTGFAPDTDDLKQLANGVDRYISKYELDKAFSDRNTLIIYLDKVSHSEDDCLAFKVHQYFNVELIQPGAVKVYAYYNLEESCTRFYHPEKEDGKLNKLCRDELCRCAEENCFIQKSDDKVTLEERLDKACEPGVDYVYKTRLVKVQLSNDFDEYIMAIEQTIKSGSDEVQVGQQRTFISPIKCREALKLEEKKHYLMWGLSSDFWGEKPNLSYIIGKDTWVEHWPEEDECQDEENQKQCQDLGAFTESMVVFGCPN
T1 sequence (P01024 23-1663 limits assumed): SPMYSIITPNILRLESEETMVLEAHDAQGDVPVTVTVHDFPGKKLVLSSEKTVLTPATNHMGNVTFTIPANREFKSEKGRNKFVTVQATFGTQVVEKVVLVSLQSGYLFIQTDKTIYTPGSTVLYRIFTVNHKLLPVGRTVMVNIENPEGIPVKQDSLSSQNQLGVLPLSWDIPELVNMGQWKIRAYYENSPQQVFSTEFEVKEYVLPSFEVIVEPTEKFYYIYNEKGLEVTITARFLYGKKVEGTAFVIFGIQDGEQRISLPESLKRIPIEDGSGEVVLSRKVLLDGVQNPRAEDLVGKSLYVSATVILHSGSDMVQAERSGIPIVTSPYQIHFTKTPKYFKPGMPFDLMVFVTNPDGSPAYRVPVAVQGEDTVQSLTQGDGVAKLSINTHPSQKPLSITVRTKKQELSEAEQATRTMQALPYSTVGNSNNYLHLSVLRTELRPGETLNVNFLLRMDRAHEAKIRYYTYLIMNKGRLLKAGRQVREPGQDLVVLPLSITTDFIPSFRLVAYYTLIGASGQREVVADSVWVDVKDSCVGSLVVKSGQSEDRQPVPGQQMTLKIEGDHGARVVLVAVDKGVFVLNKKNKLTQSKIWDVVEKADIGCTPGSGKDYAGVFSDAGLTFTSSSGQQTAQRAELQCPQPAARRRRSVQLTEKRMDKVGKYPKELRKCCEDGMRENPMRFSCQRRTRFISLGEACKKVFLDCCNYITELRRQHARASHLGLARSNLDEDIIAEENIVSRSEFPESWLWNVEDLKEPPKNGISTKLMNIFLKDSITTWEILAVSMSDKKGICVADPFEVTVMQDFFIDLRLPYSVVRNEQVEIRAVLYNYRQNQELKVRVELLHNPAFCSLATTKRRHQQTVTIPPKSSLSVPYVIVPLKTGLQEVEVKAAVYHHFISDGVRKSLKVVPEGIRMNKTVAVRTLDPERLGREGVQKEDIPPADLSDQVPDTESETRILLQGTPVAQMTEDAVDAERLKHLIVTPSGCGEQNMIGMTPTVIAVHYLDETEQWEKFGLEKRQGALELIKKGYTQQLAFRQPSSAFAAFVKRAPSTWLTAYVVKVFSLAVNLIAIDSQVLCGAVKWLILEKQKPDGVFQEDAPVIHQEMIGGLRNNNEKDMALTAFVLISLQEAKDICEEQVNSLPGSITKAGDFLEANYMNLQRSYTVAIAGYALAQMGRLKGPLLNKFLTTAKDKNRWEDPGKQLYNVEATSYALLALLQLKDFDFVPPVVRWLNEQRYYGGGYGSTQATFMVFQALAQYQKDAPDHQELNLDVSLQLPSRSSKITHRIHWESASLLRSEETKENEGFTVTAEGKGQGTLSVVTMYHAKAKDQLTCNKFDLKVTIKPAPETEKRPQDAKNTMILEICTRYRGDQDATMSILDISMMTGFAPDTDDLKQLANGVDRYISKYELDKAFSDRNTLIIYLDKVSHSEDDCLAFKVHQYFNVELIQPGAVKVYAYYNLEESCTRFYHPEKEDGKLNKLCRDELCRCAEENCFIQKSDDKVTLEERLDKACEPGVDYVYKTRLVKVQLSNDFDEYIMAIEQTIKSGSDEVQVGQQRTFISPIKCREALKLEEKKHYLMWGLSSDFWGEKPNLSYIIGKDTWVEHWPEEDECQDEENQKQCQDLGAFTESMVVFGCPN
T6 sequence (P01024 other isoform, or with tags, fused parts or gaps P314L P314L limits assumed): as the sequence (P01024 other isoform, or with tags, fused parts or gaps R102G R102G limits assumed) above, with G86R, P298L counted along it
T4 sequence (P01024 other isoform, or with tags, fused parts or gaps limits assumed): as the sequence (P01024 other isoform, or with tags, fused parts or gaps R102G R102G limits assumed) above, with G86R counted along it
T2 sequence (P01024 23-667 limits assumed, chain 1 of 2): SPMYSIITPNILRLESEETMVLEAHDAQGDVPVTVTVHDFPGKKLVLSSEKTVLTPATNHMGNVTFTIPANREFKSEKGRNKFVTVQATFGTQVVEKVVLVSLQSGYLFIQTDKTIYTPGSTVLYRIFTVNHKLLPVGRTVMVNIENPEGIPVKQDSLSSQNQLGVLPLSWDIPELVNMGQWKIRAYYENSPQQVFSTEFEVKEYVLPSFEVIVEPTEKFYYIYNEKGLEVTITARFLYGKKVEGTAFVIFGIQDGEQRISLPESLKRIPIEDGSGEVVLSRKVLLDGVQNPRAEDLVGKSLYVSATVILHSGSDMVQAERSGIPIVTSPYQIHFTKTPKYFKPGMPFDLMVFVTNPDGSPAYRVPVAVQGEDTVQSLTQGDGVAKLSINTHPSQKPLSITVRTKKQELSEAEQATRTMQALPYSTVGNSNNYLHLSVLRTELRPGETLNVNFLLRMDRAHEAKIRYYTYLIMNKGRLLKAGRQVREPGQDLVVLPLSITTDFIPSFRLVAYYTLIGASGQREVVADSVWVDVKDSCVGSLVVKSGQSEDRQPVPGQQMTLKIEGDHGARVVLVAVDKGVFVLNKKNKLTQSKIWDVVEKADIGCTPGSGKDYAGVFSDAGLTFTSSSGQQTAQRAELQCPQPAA
T2 sequence (P01024 749-1663 limits assumed, chain 2 of 2): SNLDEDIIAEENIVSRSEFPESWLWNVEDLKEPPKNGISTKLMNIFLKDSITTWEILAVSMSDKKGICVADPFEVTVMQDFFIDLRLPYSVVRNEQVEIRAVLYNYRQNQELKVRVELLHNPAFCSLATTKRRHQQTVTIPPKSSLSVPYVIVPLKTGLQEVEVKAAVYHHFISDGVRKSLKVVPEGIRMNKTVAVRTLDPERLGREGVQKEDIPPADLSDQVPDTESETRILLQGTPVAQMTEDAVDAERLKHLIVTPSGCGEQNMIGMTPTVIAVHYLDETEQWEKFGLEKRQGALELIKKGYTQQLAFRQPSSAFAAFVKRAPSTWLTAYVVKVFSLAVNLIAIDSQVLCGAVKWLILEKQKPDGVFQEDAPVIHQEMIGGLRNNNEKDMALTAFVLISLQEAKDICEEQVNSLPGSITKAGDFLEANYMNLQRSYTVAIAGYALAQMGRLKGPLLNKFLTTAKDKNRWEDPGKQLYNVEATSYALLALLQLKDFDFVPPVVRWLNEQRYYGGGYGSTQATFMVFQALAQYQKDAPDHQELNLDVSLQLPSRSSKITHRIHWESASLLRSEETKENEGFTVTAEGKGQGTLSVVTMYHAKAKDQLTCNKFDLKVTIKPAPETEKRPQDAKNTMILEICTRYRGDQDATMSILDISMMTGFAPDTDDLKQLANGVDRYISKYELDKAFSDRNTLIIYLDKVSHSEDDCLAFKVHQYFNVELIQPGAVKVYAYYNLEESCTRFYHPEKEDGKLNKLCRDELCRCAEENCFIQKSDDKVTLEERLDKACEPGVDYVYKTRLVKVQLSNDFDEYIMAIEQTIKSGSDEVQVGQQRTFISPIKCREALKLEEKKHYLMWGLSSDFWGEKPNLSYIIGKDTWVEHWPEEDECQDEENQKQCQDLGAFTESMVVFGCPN

B1: Compound A3 Fab (Fab, V domains shown)
VH: QVQLVQSGAEVKKPGASVKVSCKASGYTFTDFYMDWVRQAPGQRLEWMGYIYPHNGGTTYNQQFTGRVTITVDKSASTAYMELSSLRSEDTAVYYCARRGGFDFDYWGQGTLVTVSS
VL: DIQMTQSPSSLSASVGDRVTITCKASENVDTYVSWYQQKPGKAPKLLIYGASNRYTGVPSRFSGSGSGTDFTFTISSLQPEDIATYHCGQSHSYPLTFGQGTKLEIKR
notes: also called NGM621 surrogate in a Fab format
Question: What does the source list for B1?
Answer: Kd (human complement C3 [1]): 0.34 nM; fold lower affinity to C3b than to intact human C3 (human C3b [2]): > 100 fold

B2: Clone I (scFv)
scFv: MQLVLTQSPSASASLGASVKLTCTLSSAHKTYTIDWYQQQPEKCPRYLMQLKSDGSYTKGSGIPDRFSGSSSGAERYLTISSLQSEDEADYYCGTEGVGGYVFGGGTKLTVLGGGGGSGGGGSGGGGSGGGGSQVQLVESGGGSVQPGRSLRLSCAASGFTFSNYAMNWVRQAPGKGLEWVAVISYDGSNKYYADSVKGRFTISRDNSKNTLYLQMNSLRAEDTASYYCARAVGYHHARLDPWGCGTSVTVSS
notes: also called exemplary antibody of the invention (Clone I); scFv of the invention
Question: What does the source list for B2?
Answer: Kd (human C3b [3]): 0.14 nM; Kd (human complement C3 [4]): 0.16 nM; Kd (human C3b [5]): 0.149 nM; Kd (human complement C3 [1]): 0.152 nM; Kd (cynomolgus C3): 0.267 nM; koff (cynomolgus C3): 6.3e-05 s⁻¹; kon (cynomolgus C3): 240000 M⁻¹ s⁻¹; Kd [6]: 0.148 nM; koff [6]: 4.9e-05 s⁻¹; kon [6]: 330000 M⁻¹ s⁻¹; Kd (human C3b [7]): 0.149 nM; koff (human C3b [7]): 4.8e-05 s⁻¹; kon (human C3b [7]): 320000 M⁻¹ s⁻¹; Kd (human C3 R102G): 0.135 nM; koff (human C3 R102G): 4.5e-05 s⁻¹; kon (human C3 R102G): 330000 M⁻¹ s⁻¹; Kd (human complement C3 [8]): 0.152 nM; koff (human complement C3 [8]): 4.7e-05 s⁻¹; kon (human complement C3 [8]): 310000 M⁻¹ s⁻¹; Kd (human C3 P314L): 0.14 nM; koff (human C3 P314L): 4.2e-05 s⁻¹; kon (human C3 P314L): 300000 M⁻¹ s⁻¹; IC50 (nM), Alternative Pathway, Hemolysis (rabbit erythrocytes, human serum) (human complement C3 [9]): 705 nM; IC50 (nM), Alternative Pathway, MAC deposition (WEISLAB, human serum) (human complement C3 [9]): 344 nM; IC50 (nM), Classical Pathway, Hemolysis (antibody-sensitized sheep erythrocytes, human serum) (human complement C3 [9]): 74 nM; IC50 (nM), Classical Pathway, MAC deposition (WEISLAB, human serum) (human complement C3 [9]): 79 nM; IC50 (nM), Lectin Pathway, MAC deposition (WEISLAB, human serum) (human complement C3 [9]): 67 nM
